Patent US20030228627, “Assay for p53 function in cells” (published 2003)

B1: p21 promoter p53 5' site 25 bp oligonucleotide (dsDNA)
DNA 1: CAGGAACATGTCCCAACATGTTGAA
DNA 2: TTCAACATGTTGGGACATGTTCCTG
B2: p21 promoter p53 3' site (dsDNA)
DNA 1: AGACTGGGCATGTCTGGGCA
DNA 2: TGCCCAGACATGCCCAGTCT

How the values were obtained:
[1] = molecular target: T1, p53 (full-length, Flag-tagged) (Homo sapiens, UniProt P04637 P04637:1-393); assay: EMSA; p53 with or without acetylation by p300; site described as p53 5' binding site, gel outcome not shown in the text; details: tags: Flag, expressed in Sf9 cells; label: 32P end label
[2] = molecular target: T1, p53 (full-length, Flag-tagged); assay: footprint; DNase I footprinting on p21 promoter as chromatin or naked DNA; described as p53 3' binding site, outcome not shown in the text; details: tags: Flag, expressed in Sf9 cells

Binder	binding result [1]	binding result [2]
B1	binds	
B2		binds
